Measured values: patent US20200239586A1 (LA TROBE UNIVERSITY, published 2020)
Each block holds one binder with its values, some of them ahead of it. Ends that are not written are not given here. * marks the point of attachment. Biotin = O=C1N[C@H]2[C@H](CS[C@H]2CCCCC(=O)*)N1

Legend:
human Fn14 = molecular target: T1, human Fn14 (human, UniProt Q9NP84 28-129); assay: cell-based or functional assay
T1 sequence: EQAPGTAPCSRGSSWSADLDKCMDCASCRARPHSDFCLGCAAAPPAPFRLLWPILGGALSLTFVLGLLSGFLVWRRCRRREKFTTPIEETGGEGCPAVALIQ

[1] = molecular target: phage expressed hFn14 mutant S54A (human, UniProt Q9NP84 28-77); assay: phage ELISA, mAb coated (Method 2)
Experimental: (§1) The wells of Maxisorp immunoplates (Nunc) were coated overnight at 4° C. with the target monoclonal antibodies or recombinant Tweak-Fc at a concentration of 1.5 μg/ml in PBS. mAb 5G8 was used as a negative control for ELISA plates coated with tested antibodies. […] 10-fold serial dilutions of phage were made using PBS solution and phage dilutions were added to the coated, blocked ELISA plates for 1 hour, shaking at room temperature. Phage was subsequently removed from the wells and the ELISA plates were washed three times with PBS/0.05% Tween 20.
Method A: HRP-conjugated anti-M13-phage antibody (GE Healthcare) at a 1/5000 dilution in PBS was then added to the wells of the ELISA plates for 1 hour, shaking at room temperature. The antibody solution was then removed from the wells and the ELISA plates were washed four times with PBS/0.05% Tween 20. Method B: Biotin-conjugated anti-M13-phage antibody (GE Healthcare) diluted in PBS was then added to the wells of the ELISA plates for 1 hour shaking at room temperature. The antibody solution was then removed from the wells and the ELISA plates were washed three times with PBS/0.05% Tween 20. HRP-conjugated Streptavidin diluted in PBS was then added to the wells of the ELISA plates for 1 hour, shaking at room temperature. […] Optical density at 450 nm was quantified using a Spectramax absorbance spectrophotometer.

[2] = molecular target: T2, synthetic peptide hFn14 sub-domain 1p (human, biotin on the added C-terminal lysine); assay: ELISA on biotinylated synthetic peptide
T2 construct: synthesised by GLBiochem
T2 peptide: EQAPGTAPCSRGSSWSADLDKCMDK
Experimental: Peptides representing sub-domains 1p, 2 and 3 of hFn14 (FIG. 20, Panels B and C and FIG. 14, Panel A) and for disulfide pair mutants (Cys3&6ΔS and Cys4&5ΔS; FIG. 20 Panels D and E) were synthesized by GLBiochem Ltd. (Shanghai, China) and the cysteine residues for disulfide bonds were chosen as described in the solution structure by He et al., (2009). An additional lysine residue was added to the C-terminus in order to attach a biotin moiety and to enable the peptides to bind to neutravidin coated plates (Pre-blocked; Pierce). For these experiments, a control peptide with a biotin at the C-terminus was used as a negative control and isotype control antibodies were also used.
(§2) The ELISA was performed essentially according to the manufacturer's recommended protocol (Pierce). Briefly, peptide was coated onto wells (in duplicate) at 1-10 μg/ml for 2 hours at room temperature. Wells were washed in PBS/0.05% Tween 20/0.1% BSA 3 times and dilutions of each antibody were added in wash buffer for 1 hour with gentle agitation. After another three washes anti-mouse HRP-conjugated to horse radish peroxidase (HRP; Chemicon) was added at 1/1000 dilution for 1 hour shaking. Finally, after 4 further washes the plate was developed using TMB (3,3′,5,5′-tetramethylbenzidine) substrate (Pierce), and the reaction was stopped using 2M H2SO4 solution. Optical density at 450 nm was quantified using a Spectromax absorbance spectrophotometer.

[3] = molecular target: T3, synthetic peptide hFn14 sub-domain 3 (human, cysteine pairing not given here); assay: ELISA on biotinylated sub-domain 3 peptide, mAb at 0.2 ug/ml
T3 construct: also called sub-domain 3 peptide
T3 peptide: ASCRARPHSDFCLGK(Biotin)
Experimental: An additional lysine residue was added to the C-terminus in order to attach a biotin moiety and to enable the peptides to bind to neutravidin coated plates (Pre-blocked; Pierce). For these experiments, a control peptide with a biotin at the C-terminus was used as a negative control and isotype control antibodies were also used.
as §2
The reactivity of CRCBT-06-001 CRCBT-06-002, CRCBT-06-003, CRCBT-06-004, CRCBT-06-005, CRCBT-06-006 and CRCBT-06-007 with sub-domain 3 was lower than for sub-domain 2, indicating this region may be a partial epitope for these antibodies. However, the differences in binding to this region could reveal subtle variations in the contact regions of the antibodies with hFn14. The order of binding from strongest to weakest was CRCBT-06-005, CRCBT-06-002, CRCBT-06-001, CRCBT-06-006, CRCBT-06-007 and ITEM-1. The relative binding of each antibody to sub-domain 3 at a single point in the linear region of the curves was measured at 0.2 µg/ml (FIG. 21C). […] This could indicate the epitope of ITEM-1 may differ slightly to the CRCBT antibodies based on weaker interaction with surface exposed residues in sub-domain 3.

[4] = molecular target: T4, Histidine tagged mouse Fn14 extracellular domain (mouse, UniProt Q9CR75 28-80); assay: ELISA with purified His-tagged mouse Fn14; x axis 'Log (c)' without unit, µg/ml by the legend
T4 construct: extracellular domain; also called mFn14; not shown: (His)6 tag from pET-15b
T4 sequence (looked up): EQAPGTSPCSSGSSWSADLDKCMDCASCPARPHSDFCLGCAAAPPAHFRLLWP

[5] = molecular target: phage expressed hFn14 mutant L46A (human, UniProt Q9NP84 28-77); assay: phage ELISA (Method 2): antibody coated on the plate, 10-fold dilutions of phage displaying hFn14 L46A; biotin anti-M13 antibody, streptavidin-HRP, TMB, OD 450 nm; x axis = dilution of phage
Source text: (§3) ELISAs showing the reactivity of mutant hFn14 phage constructs with the anti-Fn14 monoclonal antibodies CRCBT-06-001, CRCBT-06-002, CRCBT-06-004 compared to ITEM-1 and ITEM-4. Binding was detected using Biotin-conjugated anti-M13-phage monoclonal antibody followed by HRP-conjugated Streptavidin and TMB substrate. Optical density at 450 nm was quantified using a Spectramax spectrophotometer. Error bars for each dilution represent the standard deviation of duplicate assays. FIG. 28A L46A, FIG. 28B D51A and FIG. 28C D62A. In all cases error bars represent the standard deviation. X axis=dilution of phage. Methods according to Epitope mapping using phage expressed Fn14—Method 2.
as §1, with “Phage was subsequently removed from the wells and the ELISA plates were washed three times with PBS/0.05% Tween 20.” left out
(§4) Method A: HRP-conjugated anti-M13-phage antibody (GE Healthcare) at a 1/5000 dilution in PBS was then added to the wells of the ELISA plates for 1 hour, shaking at room temperature. […] Optical density at 450 nm was quantified using a Spectramax absorbance spectrophotometer.

[6] = molecular target: phage expressed hFn14 mutant D62A (human, UniProt Q9NP84 28-77); assay: phage ELISA (Method 2): antibody coated on the plate, 10-fold dilutions of phage displaying hFn14 D62A; biotin anti-M13 antibody, streptavidin-HRP, TMB, OD 450 nm; x axis = dilution of phage
Source text: as §3
as §1, with “Phage was subsequently removed from the wells and the ELISA plates were washed three times with PBS/0.05% Tween 20.” left out
as §4

Sequence of phage expressed hFn14 mutant S54A (Q9NP84 28-77 S54A): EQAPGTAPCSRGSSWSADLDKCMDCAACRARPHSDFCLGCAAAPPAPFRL
Sequence of phage expressed hFn14 mutant L46A (Q9NP84 28-77 L46A): as the sequence (Q9NP84 28-77 S54A) above, with L19A, A27S counted along it

% Agonist, IL-8 secretion by A375 cells (human Fn14): 128% | binding result [1]: binds | binding result [2]: no binding | % decrease in binding compared with CRCBT-06-005 [3]: 60% | binding result [4]: binds | binding result [5]: binds | binding result [6]: binds
B1: CRCBT-06-001 (antibody, IgG2b, V domains shown)
VH: QVQLQQSGGGLVQPGGSMKLSCIASGFTFSSYWMSWVRQSPEKGLEWVAEIRSKSDNYATHYAESVKGKFTISRDDSKSRFFLQMNNLRAEDTGIYYCSSTYADYFHYWGQGTDLTVSS
VL: DIVMTQTPASLAVSLGQRATISCRASQSVSTSTYSYMHWYQQKPGQPPKLLIKYASSLESGVPARFSGSGSGTDFTLNIHPVEEDDTATYYCQHSWEIPYTFGGGTKLEIKR

% Agonist, IL-8 secretion by A375 cells (human Fn14): 11% | % Antagonist, IL-8 secretion by A375 cells (human Fn14): 94% | binding result [1]: binds | binding result [2]: no binding | % decrease in binding compared with CRCBT-06-005 [3]: 43% | binding result [4]: binds | binding result [5]: binds | binding result [6]: binds
B2: CRCBT-06-002 (antibody, IgG1, V domains shown)
VH: EVKLQQSGGGLVQPGGSMKLSCVASGFTFSYYWMNWVRQSPEQGLEWIAEIRLQSNDYPTHYAESVKGRFTISRDDSKNSVYLQMNNLRPEDTGIYYCACRYADYFDHWGQGTTLTVSS
VL: DTVLTQSPASLVVSLGQRATISCRASQSVSTSDYSYIHWYQQKPGQPPKFLIKYASNRDSGVPARFSGSGSGTDFTLNIHPVEEDDTAIYYCQHSWEIPPTFGAGTKLELQR
